Measured values: publication PMC3931819

Tests used:
[1] = target: 6X(His)-tagged P-domain of the VP1 capsid protein of norovirus VA387 (GII.4 genotype), with the cysteine-rich peptide … (norovirus VA387 (GII.4 genotype)); assay: cross-linking; 5 ug protein in HEPES 20 mM pH 7, NaCl 100 mM, MgCl2 10 mM with 0%, 0.5% or 1% glutaraldehyde, 5 min at 37°C; samples with or without boiling resolved on 10% SDS-PAGE
[2] = target: 6X(His)-tagged P-domain of the VP1 capsid protein of norovirus Norwalk strain (GI.1 genotype), with the CNGRC cysteine-rich domain (Norwalk virus (GI.1 genotype)); assay: as above

Substance | stoichiometry N [1] | stoichiometry N [2]
6X(His)-tagged P-domain of the VP1 capsid protein of norovirus VA387 (GII.4 genotype), with the cysteine-rich peptide … (domain or fragment) | > 2 | –
6X(His)-tagged P-domain of the VP1 capsid protein of norovirus Norwalk strain (GI.1 genotype), with the CNGRC cysteine-rich domain (domain or fragment) | – | > 2
